# Measurements: patent US20100062980A1, “THERAPEUTIC USES OF BETA-ANTAGONISTS” (priority 2006, published 2010)
# Entries after “also recorded” stand apart in the source; their conditions may differ.
# B1: β-cardiotoxin: three-finger toxin protein isolated from Ophiophagus hannah (king cobra) venom, SEQ ID No.3, β-adrenergic receptor blocker (protein)
# chain: RKCLNTPLPLIYTTCPIGQDKCVKMTIKKLPSKYDVIRGCIDICPKSSADVEVLCCDTNKCNK
# Assays:
# [1] = tested on: Langendorff isolated perfused rat hearts; experiment: Langendorff isolated perfused heart; settings: 5 μM in KH solution, 10 min
# Protocol: Rats were anesthetized with 7% chloral hydrate (5 ml/kg). 2 ml of 50 I.U. heparin (David Bull Laboratories, Warwick, UK) was injected i.p. 15 min prior to sacrificing the animal. The heart was excised rapidly and placed in oxygenated Krebs-Henseleit (KH) solution (in mM/1: NaCl 118.0, KCl 4.5, KH2PO4 1.4, MgSO4 1.2, NaHCO3 25, CaCl2 1.4 and glucose 11; pH 7.4) before the aorta was cannulated on the Langendorff apparatus. Non-recirculating mode of retrograde perfusion with KH solution was carried out at a constant flow (6-7 ml/min) at 37° C. The buffer was continuously bubbled with 95% O2 and 5% CO2. The hearts were allowed to equilibrate for 30 min and in study groups the buffer flow was switched to a second reservoir which contained 5 μM of the protein dissolved in KH solution, plain KH solution was passed for further 15 min in case of control group.
# A water-filled latex balloon was attached to a pressure transducer and inserted through the mitral valve into the left ventricle (LV) through an incision in the left atrium. The pressure transducer was connected to a Powerlab (ADInstruments, Castle Hill, NSW, Australia) data recording system. The following indices of cardiac performance were measured and averaged from ten beats for each condition: heart rate (HR, in beats/min) and left ventricle diastolic end pressure (LVDEP, in mmHg), which is an index of contractile activity. […]
# [2] = tested on: extrinsic pathway of blood coagulation (human plasma); experiment: Anticoagulant activity, prothrombin time; assay type: biochemical; settings: 50 μM protein per assay, vs control
# Protocol: (§1) The anticoagulant activity of the purified protein was tested by two coagulation tests using a BBL fibrometer. Blood plasma was collected from healthy human volunteers.
# Prothrombin time—The prothrombin times were measured according to the method of Quick (25). 100 μl of 50 mM Tris-HCl buffer (pH 7.4), 100 μl of plasma and 50 μl of the protein dissolved in the assay buffer were preincubated for 2 min at 37° C. Clotting was initiated by the addition of 150 μl of thromboplastin with calcium reagent (Sigma-Aldrich, St Louis, Mo.).
# [3] = tested on: intrinsic pathway of blood coagulation (human plasma); experiment: Anticoagulant activity, recalcification time; assay type: biochemical; settings: 50 μM protein per assay, vs control
# Protocol: as §1
# Recalcification time—The recalcification times were measured according to the method of Langdell et al. (26). 100 μl of 50 mM Tris-HCl buffer (pH 7.4), 100 μl of plasma and 50 μl of the protein dissolved in the assay buffer were preincubated for 2 min at 37° C. Clotting was initiated by the addition of 50 μl of 50 mM CaCl2.
# Swiss albino male mice = assay type: in vivo; settings: mice
# Text: (§2) Swiss albino male mice (˜20 g) were used for the in vivo toxicity study. Male Sprague-Dawley (SD) rats were used for electrocardiogram (ECG) monitoring (3-4 weeks old, ˜80-100 g) and the Langendorff isolated perfused heart experiments (8 weeks old, ˜250 g). Animals were acquired from the university Laboratory Animal Center (LAC) and were acclimatized to the Animal Holding Unit surroundings for at least 3 days prior to the experiments. Animals were kept under standard conditions with food and water available ad lib. All animal experiments were conducted according to the protocol (776/05a) approved by the Institutional Animal Care and Use Committee (IACUC) of the National University of Singapore.
# (§3) The protein was dissolved in 200 μl of 0.9% NaCl (Braun, Malaysia) and administered through the intra-peritoneal (i.p.) route for the in vivo toxicity study in mice. Intra-tail vein (i.t.v.) administration was done in the ECG monitoring study in rats. The various protein doses were dissolved in 200 μl of 0.9% NaCl solution and injected into the tail vein using a 27 G ½ needle (Becton Dickinson, Franklin Lakes, N.J.) held at an angle of about 10° to the tail. The infusion was made very slowly and at a steady rate.
# After purification of the protein from snake venom, i.p. doses of 1 mg/kg, 10 mg/kg and 100 mg/kg were administered to healthy male mice (three animals per group) and the symptoms were observed and recorded. 0.9% NaCl was injected as control. Postmortem examinations were conducted on the animals after their death/sacrifice.
# anesthetized male rats = experiment: Electrocardiogram monitoring and heart rate determination; assay type: in vivo, Sprague-Dawley rats; settings: i.t.v., 1 mg/kg, 10 min after administration (FIG. 8)
# Text: as §2, §3
# For electrocardiogram (ECG) measurements, Sprague-Dawley rats were anesthetized with an i.p. dose of 7% chloral hydrate (5 ml/kg). […]
molecule,measurement,setting,value
B1,change in contractility (LVDEP),[1],without any significant change in the contractility; also recorded: without affecting the contractility
same,change in heart rate,[1],dose-dependent decrease of the heart rate; also recorded: marked reduction in the heart rate
same,"change in clotting time, prothrombin time",[2],does not show any hemolytic or anticoagulant activity; also recorded: did not cause any significant changes in the clotting time
same,"change in clotting time, recalcification time",[3],does not show any hemolytic or anticoagulant activity; also recorded: did not cause any significant changes in the clotting time
same,postmortem examination,"Swiss albino male mice; i.p., 100 mg/kg",did not reveal any hemorrhage or visual damage to internal organs
same,time to death,"Swiss albino male mice; i.p., 100 mg/kg",about 30 min
same,dose up to which the protein was not lethal,Swiss albino male mice; intraperitoneal,≤ 10 mg/kg
same,change in heart rate (ECG),anesthetized male rats,dose-dependent decrease of the heart rate; also recorded: decrease in the heart rate; also recorded: dose-dependent decrease in heart rate
